B1: CmGH1 (Croceicoccus marinus) (protein)
chain: MTSDLIAKLSVNAGEPIGNMRQLHGTSGIPAPAPGTDSVPDILDVWRNAQVTLVRSYDWVSRLDTIDNPTSLFPDWSADPSDPASYNFAATDTWVGQTRSIGANILFTIASEIPANKQPARDLAKYEQVVENIVRHYVCGWGDGFENAVSHWEFGDQPDFGKLHFSGTPDQFYEMYAAAARAVKRVDPALKVGGPCVAFPLNEGPFREGFLDYVKQQSVPLDFLSWMWYGDNSRDPMDFRTIAAEVRAIVDKYGFTDTELLLSYWSMTGIPTAKFEDFDNAAFLAAAAIYMQDSEVDKAIFFRADTGADFHYNFTDPAGIFEDDGSQNARTGAFQLVGQTLATTERLAITGGDDNGFAALAGRTADGDTIRILISNYAIPDMYLTARDRDVFEFQVPIGDQKTDMSLNVPPRRVDARSTGYSGYTLEIGHLPWGDGPHRVVRYRADRDHKGEMLDSHEGRGSSVTVQNKLAVSGVELIEITRVSS
B2: CmGH1 (Croceicoccus marinus; Q157E) (protein)
chain: MTSDLIAKLSVNAGEPIGNMRQLHGTSGIPAPAPGTDSVPDILDVWRNAQVTLVRSYDWVSRLDTIDNPTSLFPDWSADPSDPASYNFAATDTWVGQTRSIGANILFTIASEIPANKQPARDLAKYEQVVENIVRHYVCGWGDGFENAVSHWEFGDEPDFGKLHFSGTPDQFYEMYAAAARAVKRVDPALKVGGPCVAFPLNEGPFREGFLDYVKQQSVPLDFLSWMWYGDNSRDPMDFRTIAAEVRAIVDKYGFTDTELLLSYWSMTGIPTAKFEDFDNAAFLAAAAIYMQDSEVDKAIFFRADTGADFHYNFTDPAGIFEDDGSQNARTGAFQLVGQTLATTERLAITGGDDNGFAALAGRTADGDTIRILISNYAIPDMYLTARDRDVFEFQVPIGDQKTDMSLNVPPRRVDARSTGYSGYTLEIGHLPWGDGPHRVVRYRADRDHKGEMLDSHEGRGSSVTVQNKLAVSGVELIEITRVSS

Experiments:
[1] = biological target: T1, CmGH1 (Croceicoccus marinus, UniProt A0A1Z1FG87); assay: residual p-NPG hydrolysis with added glucose; type: biochemical; conditions: p-NPG substrate; product inhibition
T1 construct: gene A9D14_15590; N-terminal His6-SUMO tag (pSMT3) cut with Ulp1; expressed in E. coli BL21 (DE3)

[2] = substrate: O=[N+]([O-])c1ccc(O[C@@H]2O[C@H](CO)[C@@H](O)[C@H](O)[C@H]2O)cc1; assay: purified protein; conditions: conditions of the Km not stated, optimum pH 9.0, 55°C

Row | Molecule | % relative activity remaining at 200 mM [1] [%] | Km [2] [µM] | kcat [2] [s⁻¹]
1 | OC[C@H]1OC(O)[C@H](O)[C@@H](O)[C@@H]1O (some centres unmarked) [glucose] | > 30 | – | –
2 | B1 | – | 332 ± 38 | 0.0358 ± 0.00135
3 | B2 | – | 354.2 ± 42 | 0.488 ± 0.0147

Source: PMC6933502, “Structural and Functional Insights Into CmGH1, a Novel GH39 Family β-Glucosidase From Deep-Sea Bacterium” (Frontiers in Microbiology, 2019)
